Here are results for 1 molecule from paper PMC11079029, “Intramolecular autoinhibition regulates the selectivity of PRPF40A tandem WW domains for proline-rich motifs” (Nature Communications, 2024).

Test in all cases: ITC; GB1-peptide or GB1-SF1 construct in the cell, PRPF40A WW12 in the syringe (as shown in Supplementary Figures 7 and 16A); 25 °C, 20 mM sodium phosphate pH 6.5, 100 mM NaCl; one-site binding model; at least duplicates; affinities apparent
Conditions in all cases: both partners purified

The target of experiment [1] is T1, GB1-polyproline peptide P10.
T1 chain: PPPPPPPPPP

In experiment [2] the target is T2, GB1-SF1 Pro A (residues 410-468) (UniProt Q15637 410-468).
T2 construct: splicing factor 1 (SF1), residues 410-468 of the proline-rich C-terminal region; His6-GB1-TEV site cassette of the pET24 vector, not cleaved; source: E. coli BL21(DE3), purified (Ni-NTA, SEC); not shown: GB1, N-terminal, kept
T2 sequence (looked up): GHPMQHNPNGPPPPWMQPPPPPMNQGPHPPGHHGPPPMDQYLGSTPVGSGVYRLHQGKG

Experiment [3] has as its target T3, GB1-SF1 Pro C (residues 539-594) (UniProt Q15637 539-594).
T3 construct: splicing factor 1 (SF1), residues 539-594 of the proline-rich C-terminal region (holds the WWbs motif 575-590); His6-GB1-TEV site cassette of the pET24 vector, not cleaved; source: E. coli BL21(DE3), purified (Ni-NTA, SEC); not shown: GB1, N-terminal, kept
T3 sequence (looked up): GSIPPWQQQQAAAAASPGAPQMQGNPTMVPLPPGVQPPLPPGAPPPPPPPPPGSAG

Experiment [4] deals with T4, GB1-polyproline peptide P19.
T4 chain: PPPPPPPPPPPPPPPPPPP

In experiment [5] the target is T5, GB1-SF1 Pro B (residues 468-539) (UniProt Q15637 468-539).
T5 construct: splicing factor 1 (SF1), residues 468-539 of the proline-rich C-terminal region; His6-GB1-TEV site cassette of the pET24 vector, not cleaved; source: E. coli BL21(DE3), purified (Ni-NTA, SEC); not shown: GB1, N-terminal, kept
T5 sequence (looked up): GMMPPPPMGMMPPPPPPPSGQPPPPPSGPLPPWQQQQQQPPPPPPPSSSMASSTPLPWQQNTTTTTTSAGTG

Experiment [6] concerns the target T6, GB1-polyproline peptide P22.
T6 chain: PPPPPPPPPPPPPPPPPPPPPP

Experiment [7] deals with T7, GB1-SF1 16-mer peptide 565-580.
T7 chain: TMVPLPPGVQPPLPPG

For experiment [8], the target named is T8, GB1-polyproline peptide P29.
T8 chain: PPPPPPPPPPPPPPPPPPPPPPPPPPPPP

Experiment [9] has as its target T9, GB1-SF1 Pro D (residues 594-639) (UniProt Q15637 594-639).
T9 construct: splicing factor 1 (SF1), residues 594-639 of the proline-rich C-terminal region; His6-GB1-TEV site cassette of the pET24 vector, not cleaved; source: E. coli BL21(DE3), purified (Ni-NTA, SEC); not shown: GB1, N-terminal, kept
T9 chain (looked up): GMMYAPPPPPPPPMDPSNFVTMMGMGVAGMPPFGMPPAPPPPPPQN

The target in experiment [10] is T10, GB1-polyproline peptide P16.
T10 chain: PPPPPPPPPPPPPPPP

Experiment [11] has as its target T11, GB1-polyproline peptide P13.
T11 chain: PPPPPPPPPPPPP

For experiment [12], the target named is T12, GB1-polyproline peptide P25.
T12 chain: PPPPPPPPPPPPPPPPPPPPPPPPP

B1: PRPF40A WW12 (tandem WW domains, residues 141-236) (domain or fragment, human, UniProt O75400 141-236, looked up)
chain: GAKSMWTEHKSPDGRTYYYNTETKQSTWEKPDDLKTPAEQLLSKCPWKEYKSDSGKPYYYNSQTKESRWAKPKELEDLEGYQNTIVAGSLITKSNL
notes: A few vector residues probably remain at the N-terminus after TEV cleavage (pETM11, NcoI site); 15N-labelled in the NMR experiments; also called PRPF40A WW tandem; WW12 wt; source: E. coli BL21(DE3), purified (Ni-NTA, TEV digestion, reverse Ni-NTA, SEC); not shown: His6, N-terminal, cleaved
As a reminder, the stoichiometry N is a count of units in the complex or per binding partner. Consider B1, for which the “stoichiometry N” value turned out to be 0.89 ± 0.11 sites in [1]; 0.99 ± 0.17 sites in experiment [2]; 0.88 ± 0.01 sites in [3]; 1.1 ± 0.04 sites in [4]; 1.15 ± 0.15 sites in [5]; 1.39 ± 0.03 sites in experiment [6]. The “stoichiometry N” value in [7] is 1.06 ± 0.11 sites; in [8], 2.47 ± 0.09 sites; in experiment [9], 0.87 ± 0.02 sites; in [10], 0.88 ± 0.08 sites; in [11], 0.78 ± 0.07 sites; in experiment [12], 2.3 ± 0.09 sites.
